# Results taken from US20210171616A1 (Eli Lilly, published 2021).
# B1: Exemplified Antibody B (antibody, human IgG4 S228P, kappa, F234A L235A, V domains shown)
# VH: EVQLLESGGGLVQPGGSLRLSCAASGFTFSSYYMSWVRQAPGKGLEWVSAISLSGGSTYYAASHKGRFTISRDNSKNTLYLQMNSLRAEDTAVYYCVREVGASTHNYYGMDVWGQGTMVTVSS
# VL: DIQMTQSPSSLSASVGDRVTITCRASQSIWRWLAWYQQKPGKAPKLLIHDASQLFEGVPSRFSGSGSGTDFTFTISSLQPEDIATYYCQQFDLLPLTFGGGTKVEIKR
# notes: IgG4, kappa light chain; also called Exemplified Ab B; Ab B
# Columns and labels:
# PACAP27 [1] = molecular target: T1, PACAP27 (human, L at residue 27 modified by C-terminal amidation); assay: cell-based or functional assay
# T1 peptide: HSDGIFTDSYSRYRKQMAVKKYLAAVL
# PACAP38 [2] = molecular target: T2, PACAP38 (human, K at residue 38 modified by C-terminal amidation); assay: cell-based or functional assay
# T2 peptide: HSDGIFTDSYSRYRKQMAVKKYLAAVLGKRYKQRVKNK
# PACAP27 [3] = molecular target: T1, PACAP27; assay: cell-based or functional assay
# VIP = molecular target: T3, VIP (UniProt P01282 125-152); assay: cell-based or functional assay
# T3 peptide (looked up): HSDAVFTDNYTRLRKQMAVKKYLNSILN
# PACAP38 [4] = molecular target: T2, PACAP38; assay: cell-based or functional assay
# PACAP38 [5] = molecular target: T2, PACAP38; assay: cell-based or functional assay
# PACAP27 [6] = molecular target: T1, PACAP27; assay: cell-based or functional assay
# PACAP38 [7] = molecular target: T2, PACAP38; assay: cell-based or functional assay
# PACAP27 [8] = molecular target: T1, PACAP27; assay: cell-based or functional assay
# PACAP38 [9] = molecular target: T2, PACAP38; assay: cell-based or functional assay
# [10] = molecular target: T4, N-terminal biotinylated PACAP38 (Anaspec, #23590) (human, N-terminal biotin; K at residue 38 modified by C-terminal amidation (as stated for SEQ ID NO 13)); assay: kinetic exclusion 96-well MSD plate assay, solution equilibrium at 37 C, 30 pM biotinylated antigen
# T4 construct: Bought peptide; also called Antigen (PACAP38)
# T4 peptide: T2 peptide
# Protocol: (§1) Binding affinity (KD) for each antibody-antigen complex is determined using a kinetic exclusion 96-well plate-based assay (adapted from Estep et al., mAbs, 2013, 5:270-278). Briefly, a 3-fold dilution series for each Exemplified Ab (set forth in Table 1) is prepared from a starting concentration of 7290 pM to 41 fM; each series including an antibody-blank control. Samples are prepared in 3% (w/v) Blocker A solution (MSD, #R93AA-1) and a fixed final antigen concentration of 30 pM of N-terminal biotinylated PACAP27 (custom synthesis, CPC Scientific) or N-terminal biotinylated PACAP38 (Anaspec, #23590) is added to each sample. A volume of 100 μl of each antigen-antibody sample is added to individual wells of a 96-well microtiter plate (Greiner, EK-20101) in duplicate. The plate is sealed with optical adhesive film (Thermo Fisher Scientific, #4311971) and incubated at 37° C. for 3 to 4 days to allow for sample equilibrium. On the day before analysis, each row of a 96-well MSD Standard plate (MSD, #L15XA) is coated with 30 μl of the corresponding antibody (as used in the titration series) at a concentration of 3 μg/ml in phosphate buffered saline (PBS). On the day of the experiment, the MSD Standard plate is washed once with 150 μl PBS and blocked with 150 μl of 3% Blocker A solution for 45 min at 30° C. with shaking at 300 rpm on a MaxQ 4450 benchtop shaker (Thermo Fisher Scientific). Following three washes with PBS, 50 μl of each antigen-antibody sample (prepared and incubated as described above) is added to the MSD Standard plate and incubated for 150 seconds at 30° C. with shaking at 300 rpm. Following a single wash with PBS, 50 μl of 1 μg/ml SULFO-TAG labeled Streptavidin (MSD, #R32AD-5) prepared in 1% (w/v) Blocker A solution is added and the MSD Standard plate and the plate is incubated at 30° C. for 3 minutes with shaking at 300 rpm. The plate is washed three more times with PBS followed by the addition of 150 μl/well of 1× Read buffer (MSD, #R92TC-2). The MSD Standard plate is read using a MESO Quickplex SQ 120/1300 instrument (Meso Scale Discovery). Data analysis is done using SigmaPlot (Version 12.5, Systat Software) and binding affinity (KD) is determined using SigmaPlot's integrated Four Parameter Logistic Curve Model.
# [11] = molecular target: T5, N-terminal biotinylated PACAP27 (custom synthesis, CPC Scientific) (human, N-terminal biotin; L at residue 27 modified by C-terminal amidation (as stated for SEQ ID NO 14)); assay: as above
# T5 construct: Custom peptide; also called Antigen (PACAP27)
# T5 peptide: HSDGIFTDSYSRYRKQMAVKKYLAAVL
# Protocol: as §1
molecule,measurement,setting,value
IgG4 mAb (negative control) (antibody),"Percentage tryptase release in human mast cells upon addition of 1 uM PACAP27; negative control antibody, single point",PACAP27 [1],110%
same,Percentage tryptase release upon addition of PACAP27; negative control antibody dose 153 uM,PACAP27 [1],94.8%
same,"Percentage tryptase release in human mast cells upon addition of 1 uM PACAP38; negative control antibody, single point",PACAP38 [2],104%
same,Percentage tryptase release upon addition of PACAP38; negative control antibody dose 153 uM,PACAP38 [2],79.6%
same,Plasma cAMP levels in CD-1 mice after iv PACAP38 (13 nmols/kg); control antibody 10 mg/kg sc,PACAP38 [2],4.09 µM
B1,Inhibition (IC50) of PACAP27 (100 pM) induced cAMP in hPAC1 CHO-K1 cells,PACAP27 [3],270 pM
same,Inhibition (IC50) of PACAP27 (800 pM) induced cAMP in hVPAC2 CHO-K1 cells,PACAP27 [3],605 pM
same,Inhibition (IC50) of VIP (800 pM) induced cAMP in hVPAC2 CHO-K1 cells,VIP,> 100000 pM
same,Inhibition (IC50) of PACAP38 (100 pM) induced cAMP in hPAC1 CHO-K1 cells,PACAP38 [4],265 pM
same,Inhibition (IC50) of PACAP38 (800 pM) induced cAMP in hVPAC2 CHO-K1 cells,PACAP38 [4],294 pM
same,Percentage tryptase release upon addition of PACAP38; antibody dose 0 uM,PACAP38 [5],77.2%
same,Percentage tryptase release upon addition of PACAP38; antibody dose 0.2 uM,PACAP38 [5],73.7%
same,Percentage tryptase release upon addition of PACAP38; antibody dose 0.6 uM,PACAP38 [5],52.4%
same,Percentage tryptase release upon addition of PACAP38; antibody dose 1.8 uM,PACAP38 [5],25.2%
same,Percentage tryptase release upon addition of PACAP38; antibody dose 5.6 uM,PACAP38 [5],22%
same,Percentage tryptase release upon addition of PACAP38; antibody dose 17 uM,PACAP38 [5],14.9%
same,Percentage tryptase release upon addition of PACAP38; antibody dose 51 uM,PACAP38 [5],14.6%
same,Percentage tryptase release upon addition of PACAP38; antibody dose 153 uM,PACAP38 [5],2%
same,Percentage tryptase release upon addition of PACAP27; antibody dose 0 uM,PACAP27 [6],85.2%
same,Percentage tryptase release upon addition of PACAP27; antibody dose 0.2 uM,PACAP27 [6],78.1%
same,Percentage tryptase release upon addition of PACAP27; antibody dose 0.6 uM,PACAP27 [6],54%
same,Percentage tryptase release upon addition of PACAP27; antibody dose 1.8 uM,PACAP27 [6],11.7%
same,Percentage tryptase release upon addition of PACAP27; antibody dose 5.6 uM,PACAP27 [6],8.1%
same,Percentage tryptase release upon addition of PACAP27; antibody dose 17 uM,PACAP27 [6],11.6%
same,Percentage tryptase release upon addition of PACAP27; antibody dose 51 uM,PACAP27 [6],19.4%
same,Percentage tryptase release upon addition of PACAP27; antibody dose 153 uM,PACAP27 [6],10.3%
same,Plasma cAMP levels in CD-1 mice after iv PACAP38 (13 nmols/kg); antibody 10 mg/kg sc,PACAP38 [7],715 nM
same,"Percentage tryptase release in human mast cells upon addition of 1 uM PACAP27; antibody 153 uM, single point",PACAP27 [8],21%
same,"Percentage tryptase release in human mast cells upon addition of 1 uM PACAP38; antibody 153 uM, single point",PACAP38 [9],4.9%
same,Kd,[10],0.0128 nM
same,Kd,[11],0.0116 nM
